Among the data in the supplement of paper PMC10567573 are protein stability index values, retold here.

The chains are these.
B1: TRIM63 (parent)
chain: QRITQEQEKKLSFIEALIQQYQEQ
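Further: lentivirally expressed fusions sorted by FACS into six bins by GFP to DsRed ratio, PSI derived from sequencing read proportions per bin multiplied by bin number.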

The variants in this data set derive from B1. The data set can be described thus: protein stability index of a GFP-peptide fusion (GPS, HEK-293T) (PSI 1-6); higher = more stable. The following applies: c terminus: a fixed tail appended.
In the case of QNITQEQEKKLSFIEALIQQYQEQ [R2N], the protein stability index was 2.91.
The same measure for QGITQEQEKKLSFIEALIQQYQEQ [R2G]: 2.35.
Next, QCITQEQEKKLSFIEALIQQYQEQ [R2C]: 2.85.
Consider QYITQEQEKKLSFIEALIQQYQEQ [R2Y], for which the protein stability index is 1.75.
With QIITQEQEKKLSFIEALIQQYQEQ [R2I], the protein stability index stood at 1.89.
With QQITQEQEKKLSFIEALIQQYQEQ [R2Q], the protein stability index was 2.23.
Next, QDITQEQEKKLSFIEALIQQYQEQ [R2D]: 3.23.
QSITQEQEKKLSFIEALIQQYQEQ [R2S]: the protein stability index was 2.45.
Next, QMITQEQEKKLSFIEALIQQYQEQ [R2M]: 2.48; QWITQEQEKKLSFIEALIQQYQEQ [R2W]: 2.2.
For QHITQEQEKKLSFIEALIQQYQEQ [R2H], the protein stability index was 2.44.
The same measure for QFITQEQEKKLSFIEALIQQYQEQ [R2F]: 2.06; for QLITQEQEKKLSFIEALIQQYQEQ [R2L]: 2.63.
With QKITQEQEKKLSFIEALIQQYQEQ [R2K], the protein stability index is 2.26.
The same measure for QEITQEQEKKLSFIEALIQQYQEQ [R2E]: 1.88.
As to QPITQEQEKKLSFIEALIQQYQEQ [R2P], the protein stability index turned out to be 3.23.
The same measure for QTITQEQEKKLSFIEALIQQYQEQ [R2T]: 2.42; for QAITQEQEKKLSFIEALIQQYQEQ [R2A]: 2.57; for QVITQEQEKKLSFIEALIQQYQEQ [R2V]: 2.72.
The same measure for QRIAQEQEKKLSFIEALIQQYQEQ [T4A]: 3.01; for QRIFQEQEKKLSFIEALIQQYQEQ [T4F]: 2.2; for QRIGQEQEKKLSFIEALIQQYQEQ [T4G]: 2.73.
With QRIPQEQEKKLSFIEALIQQYQEQ [T4P], the protein stability index stood at 2.87.
Take QRIIQEQEKKLSFIEALIQQYQEQ [T4I]: the protein stability index is 2.55.
Next, QRIDQEQEKKLSFIEALIQQYQEQ [T4D]: 3.22.
Take QRICQEQEKKLSFIEALIQQYQEQ [T4C]: the protein stability index came out at 2.1.
Next, QRIKQEQEKKLSFIEALIQQYQEQ [T4K]: 2.8; QRINQEQEKKLSFIEALIQQYQEQ [T4N]: 2.59; QRIHQEQEKKLSFIEALIQQYQEQ [T4H]: 1.8.
Next, QRIMQEQEKKLSFIEALIQQYQEQ [T4M]: 2.7.
Consider QRIEQEQEKKLSFIEALIQQYQEQ [T4E], for which the protein stability index is 3.19.
Regarding QRIVQEQEKKLSFIEALIQQYQEQ [T4V], the protein stability index is 2.87.
Next, QRISQEQEKKLSFIEALIQQYQEQ [T4S]: 2.5.
For the variant QRIYQEQEKKLSFIEALIQQYQEQ [T4Y], the protein stability index worked out at 1.66.
The same measure for QRIRQEQEKKLSFIEALIQQYQEQ [T4R]: 2.79; for QRILQEQEKKLSFIEALIQQYQEQ [T4L]: 2.63.
As to QRIQQEQEKKLSFIEALIQQYQEQ [T4Q], the protein stability index was found to be 2.89.
On to QRIWQEQEKKLSFIEALIQQYQEQ [T4W], for which the protein stability index amounted to 1.71.
Next, CRITQEQEKKLSFIEALIQQYQEQ [Q1C]: 2.11; NRITQEQEKKLSFIEALIQQYQEQ [Q1N]: 2.31; LRITQEQEKKLSFIEALIQQYQEQ [Q1L]: 2.57.
Next, VRITQEQEKKLSFIEALIQQYQEQ [Q1V]: 1.79.
For the variant ERITQEQEKKLSFIEALIQQYQEQ [Q1E], the protein stability index was found to be 3.15.
Next, HRITQEQEKKLSFIEALIQQYQEQ [Q1H]: 2.84.
The same measure for ARITQEQEKKLSFIEALIQQYQEQ [Q1A]: 2.3; for TRITQEQEKKLSFIEALIQQYQEQ [Q1T]: 2.19; for RRITQEQEKKLSFIEALIQQYQEQ [Q1R]: 2.16.
The same measure for KRITQEQEKKLSFIEALIQQYQEQ [Q1K]: 2.17; for DRITQEQEKKLSFIEALIQQYQEQ [Q1D]: 2.32; for PRITQEQEKKLSFIEALIQQYQEQ [Q1P]: 2.17.
As for IRITQEQEKKLSFIEALIQQYQEQ [Q1I], the protein stability index worked out at 2.75.
The same measure for SRITQEQEKKLSFIEALIQQYQEQ [Q1S]: 2.23; for GRITQEQEKKLSFIEALIQQYQEQ [Q1G]: 2.13.
As for YRITQEQEKKLSFIEALIQQYQEQ [Q1Y], the protein stability index came out at 1.95.
Next, FRITQEQEKKLSFIEALIQQYQEQ [Q1F]: 2.91.
The same measure for MRITQEQEKKLSFIEALIQQYQEQ [Q1M]: 2.36; for WRITQEQEKKLSFIEALIQQYQEQ [Q1W]: 1.95.
In the case of QRDTQEQEKKLSFIEALIQQYQEQ [I3D], the protein stability index came out at 2.22.
Next, QRETQEQEKKLSFIEALIQQYQEQ [I3E]: 2.45.
QRVTQEQEKKLSFIEALIQQYQEQ [I3V]: the protein stability index was determined as 2.56.
In the case of QRTTQEQEKKLSFIEALIQQYQEQ [I3T], the protein stability index stood at 2.39.
With QRPTQEQEKKLSFIEALIQQYQEQ [I3P], the protein stability index was 2.62.
Next, QRMTQEQEKKLSFIEALIQQYQEQ [I3M]: 1.83.
The same measure for QRWTQEQEKKLSFIEALIQQYQEQ [I3W]: 2.44; for QRKTQEQEKKLSFIEALIQQYQEQ [I3K]: 2.37.
Next, QRCTQEQEKKLSFIEALIQQYQEQ [I3C]: 2.3; QRRTQEQEKKLSFIEALIQQYQEQ [I3R]: 2.76; QRLTQEQEKKLSFIEALIQQYQEQ [I3L]: 2.5.
As to QRQTQEQEKKLSFIEALIQQYQEQ [I3Q], the protein stability index was found to be 2.33.
The same measure for QRYTQEQEKKLSFIEALIQQYQEQ [I3Y]: 2.16; for QRHTQEQEKKLSFIEALIQQYQEQ [I3H]: 2.54; for QRATQEQEKKLSFIEALIQQYQEQ [I3A]: 2.37.
The same measure for QRSTQEQEKKLSFIEALIQQYQEQ [I3S]: 2.59.
Turning to QRNTQEQEKKLSFIEALIQQYQEQ [I3N], the protein stability index came to 2.48.
As for QRFTQEQEKKLSFIEALIQQYQEQ [I3F], the protein stability index is 2.61.
For the variant QRGTQEQEKKLSFIEALIQQYQEQ [I3G], the protein stability index turned out to be 2.31.
Next, QRITQHQEKKLSFIEALIQQYQEQ [E6H]: 1.71; QRITQKQEKKLSFIEALIQQYQEQ [E6K]: 2; QRITQLQEKKLSFIEALIQQYQEQ [E6L]: 1.8.
On to QRITQIQEKKLSFIEALIQQYQEQ [E6I], for which the protein stability index turned out to be 1.62.
Next, QRITQRQEKKLSFIEALIQQYQEQ [E6R]: 1.88.
With QRITQGQEKKLSFIEALIQQYQEQ [E6G], the protein stability index came to 2.39.
Next, QRITQAQEKKLSFIEALIQQYQEQ [E6A]: 2.24.
The same measure for QRITQNQEKKLSFIEALIQQYQEQ [E6N]: 1.73; for QRITQDQEKKLSFIEALIQQYQEQ [E6D]: 2.12.
In the case of QRITQPQEKKLSFIEALIQQYQEQ [E6P], the protein stability index amounted to 1.97.
In the case of QRITQSQEKKLSFIEALIQQYQEQ [E6S], the protein stability index worked out at 2.09.
Next, QRITQQQEKKLSFIEALIQQYQEQ [E6Q]: 1.75; QRITQMQEKKLSFIEALIQQYQEQ [E6M]: 2.27.
For QRITQCQEKKLSFIEALIQQYQEQ [E6C], the protein stability index came out at 1.83.
For QRITQFQEKKLSFIEALIQQYQEQ [E6F], the protein stability index is 1.9.
In the case of QRITLEQEKKLSFIEALIQQYQEQ [Q5L], the protein stability index worked out at 1.68.
Next, QRITHEQEKKLSFIEALIQQYQEQ [Q5H]: 2.05.
Take QRITVEQEKKLSFIEALIQQYQEQ [Q5V]: the protein stability index came to 1.94.
